The results in this text go back to the supplement of paper PMC9170038.

This data set has as its system MS2 coat protein. Kind of data set: apparent KD of MS2 coat protein; higher = weaker reporter binding. The settings on record: Eterna round: R107. The essentials:
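Designed RNA switches were transcribed on-chip from Illumina sequencing clusters. They were then titrated with SNAP-549-labelled MS2 coat protein (twofold steps, 0.7 or 1.5 nM to 3 µM; 0.8–1.5 h to 10–20 min per step) in 100 mM Tris-HCl pH 7.5, 80 mM KCl, 4 mM MgCl2, without or with constant ligand. Apparent KD is the per-design median of normalised cluster binding-curve fits.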

The mark [1] stands for this setting: input ligand: theophylline 20 uM.
Where [2] appears, read: input ligand: theophylline 2 mM.
[3] abbreviates: input ligand: tryptophan 2.4 mM.

As to “UGACAUUGCUCAGAUACCAGACGUGAGGAUCACCCACGUGCCAACAAGUACAAAAUAAAUGUCCCUUGGCAGCUGAGCAAUGUCU [TheoBX 26 #MS2Left #AlternativeMS2 #Theo22]”, the “apparent KD of MS2 coat protein” value reads like this: (input ligand: arginine 13.2 mM) 9.64 nM; (input ligand: none) 9.95 nM; under setting [1], 12.7 nM; under setting [2], 14.1 nM; under setting [3], 10.9 nM.
On the same counts, the results for “AACAUGAGGGCGGCCGCCACUCCAUGAACAUGAGGAUCACCCAUGUUGAGGAUCACCCAUGUUGUGAGGACCGGGCCACAUGAGG [Exclusion Tryptophan B 3]” are 31.7 nM, 38 nM, 66.1 nM, 59.8 nM and 89.6 nM.
The like results for “GGUUUAUAUAUAUAUAUAUAGAUUACUGAAGGAGCGGGAAAUAACCCAGGUAGGUCGCAGAGAUCCACAUGAGGAUCACCCAUGU [!0.E]” were, in that order, 37.1 nM, 40.2 nM, 55.3 nM, 54.3 nM and 36.8 nM.
As for “GGCAAGCGAGACAUGAGGAUCACCCAUGUUCGAGGACCGGUACGGCCGCCACUCGGUGGACUCAUGGUAAAGCCGGUGAGCCAAA [AK 1 SS Trypt (A)]”, the “apparent KD of MS2 coat protein” value runs as follows: (input ligand: arginine 13.2 mM) 27.4 nM; under setting [1], 44.8 nM; under setting [2], 38 nM.
Turning to “ACACAUGAGGAUCAUCCAUGUGCCCAUGAAGGAGCGUGGGAAACCACAGGUAGGUCGCAUGACAUGAGGAUCACCCAUGUUUAUU [#03 Exclusion - Arginine A]”, the “apparent KD of MS2 coat protein” value came to 66.6 nM (input ligand: arginine 13.2 mM); 204 nM (input ligand: none); 203 nM under setting [1]; 366 nM under setting [2]; 209 nM under setting [3].
Take “GCGAUACAUGAGGAUCACCCAUGUGCAGAUACCAGAGGUGCAUGCCUCCCUUGGCAGCUGCGACGCUCUGGCAUCUUGUGGGAUG [Same State Theophylline A GF20]”: the “apparent KD of MS2 coat protein” value is, setting by setting: (input ligand: arginine 13.2 mM) 37.6 nM; under setting [1], 86.4 nM; under setting [3], 56.9 nM.
With “CCGCACAUGAGGAUCACCCAUGUCAGGGAUACCAGCCCAGACAUGGGCCCUUGGCAGCCCUGUAGCUGACGAAAGUCAGCAGCGG [Omei Theo A SS A v1]”, the “apparent KD of MS2 coat protein” value (input ligand: arginine 13.2 mM) worked out at 51.9 nM; the “apparent KD of MS2 coat protein” value (input ligand: none) was determined as 31.7 nM; the “apparent KD of MS2 coat protein” value under setting [1] came out at 277 nM; the “apparent KD of MS2 coat protein” value under setting [2] is 57.6 nM; the “apparent KD of MS2 coat protein” value under setting [3] was 44.7 nM.
Consider “GCACUACAUGAGGAUCACCCAUGUGCAGAUACCAGAGGUGUAUGCCUCCCUUGGCAGCUGAGUAGGUCUGGAGGGCUAUUGGUUU [Same State Theophylline A GF14]”, for which the “apparent KD of MS2 coat protein” value (input ligand: arginine 13.2 mM) was 17.8 nM, the “apparent KD of MS2 coat protein” value under setting [1] stood at 27.8 nM and the “apparent KD of MS2 coat protein” value under setting [3] came out at 18.2 nM.
The like results for “UCGUGUAUAUCGGAUACCAGUGAAAUCGAUACAUGAGGAUCACCCAUGUGAGAGGAUGUACACCCUUGGCAGCUGUAUAUAUCUA” were, in that order, 19.5 nM, 28.5 nM and 25.1 nM.
On to “AGACAUGAGGAUCACCCAUGUAGUACGGAUACCAGAUCCAGAUGUAUCCCUUGGCAGCUGUGGUACAGCGUUGCAUCGCUCCUAG [Exclusion - Theophylline A (Freestyle 19)]”, for which the “apparent KD of MS2 coat protein” value is, setting by setting: (input ligand: arginine 13.2 mM) 13.1 nM; (input ligand: none) 16.6 nM; under setting [1], 20.6 nM; under setting [2], 20.1 nM; under setting [3], 14.4 nM.
Take “AUACAUGAGGAUCACCCAUGUAUAGAUGAAGGAGCGACCAGAGGGUCAGGUAGGUCGCAUCACAUGAGGAUCACCCAUGUAUUUU [DOUBLE!!! :-D #10]”: the “apparent KD of MS2 coat protein” value runs as follows: (input ligand: arginine 13.2 mM) 41.9 nM; (input ligand: none) 64 nM; under setting [1], 67.8 nM; under setting [2], 64.4 nM; under setting [3], 43.7 nM.
Regarding “CUGUGUCCUUCGGCCGCCACUACAUGAGGAUCACCCAUGUCGUUACGGCUCCCAAUGACGCUUUGUAGGACCGGGAAGGAGUAUG [Tienancebe]”, the “apparent KD of MS2 coat protein” value (input ligand: arginine 13.2 mM) is 9.27 nM, the “apparent KD of MS2 coat protein” value under setting [1] was found to be 15.9 nM and the “apparent KD of MS2 coat protein” value under setting [2] came out at 10.9 nM.
On to “GUGAGGUUUGAUGAUACCAGAUGUGGUGGGAACAUGAGGAUCACCCAUGUUGUGAAACAGGUCCCUUGGCAGCAUGAGAGAGCUU [TheoB-ms2@32]”, for which the “apparent KD of MS2 coat protein” value stood at 30.5 nM (input ligand: arginine 13.2 mM), 89.3 nM under setting [1] and 52.7 nM under setting [3].
As to “GGAGUCGGCACGGCCGCCACUGCGGUGGUGUGACAUGAGGAUCACCCAUGUUGUCAUGCGGCCCUUAGGACCGGGUGGCGGUUCC [#1 Exclusion - Tryptophan B Attempt #22 (HarryS)]”, the “apparent KD of MS2 coat protein” value (input ligand: arginine 13.2 mM) turned out to be 28.4 nM, the “apparent KD of MS2 coat protein” value (input ligand: none) was determined as 58.7 nM, the “apparent KD of MS2 coat protein” value under setting [1] is 76.1 nM and the “apparent KD of MS2 coat protein” value under setting [2] amounted to 82.6 nM.
As for “GGACUAACCUGAAGGAGCGACACGCACAAAGUGCAAAUUCCUCCACACGAGGAUCACCCGUGUCAGGUAGGUCGCAGGUUAGUCG [ArgBX 28]”, the “apparent KD of MS2 coat protein” value came out at 24.3 nM (input ligand: arginine 13.2 mM); 23 nM (input ligand: none); 30.8 nM under setting [1]; 23.7 nM under setting [2]; 29.1 nM under setting [3].
